One experiment has as its target recombinant PD-L1 extracellur domain protein (UniProt Q9NZQ7). The experiment can be described thus: ELISA on recombinant PD-L1 extracellular domain protein. (In general: In an ELISA, binding on a coated surface is turned into a signal by an enzyme label.)
recombinant PD-L1 extracellur domain protein, sequence (Q9NZQ7 19-238 limits assumed): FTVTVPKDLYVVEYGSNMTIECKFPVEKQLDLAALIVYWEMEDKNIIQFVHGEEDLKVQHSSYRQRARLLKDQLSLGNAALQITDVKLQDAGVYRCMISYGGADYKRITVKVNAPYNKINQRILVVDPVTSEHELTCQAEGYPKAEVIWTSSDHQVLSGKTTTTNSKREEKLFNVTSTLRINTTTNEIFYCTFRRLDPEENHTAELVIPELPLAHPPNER
By EC50 is commonly meant the midpoint of the concentration-response curve. Take “P050 (IgV domain of PD-1, lower affinity L128R mutant, Gene 050, on kappa chain, co-expressed with an empty IgG1 heavy chain) (from UniProt P01857 1-330)”: the EC50 was over 100 nM.

On to “HAC, high affinity PD-1 mutant (positive control)”, for which the EC50 is under 0.1 nM.

In the case of “P048 (IgV domain of PD-1, Gene 048, on kappa chain, co-expressed with an empty IgG1 heavy chain) (from UniProt P01857 1-330)”, the EC50 is over 100 nM.

For another experiment, the target named is recombinant CD47 extracellur domain protein (UniProt Q08722). The experiment can be described thus: ELISA on recombinant CD47 extracellular domain protein.
recombinant CD47 extracellur domain protein, sequence (Q08722 19-139 limits assumed): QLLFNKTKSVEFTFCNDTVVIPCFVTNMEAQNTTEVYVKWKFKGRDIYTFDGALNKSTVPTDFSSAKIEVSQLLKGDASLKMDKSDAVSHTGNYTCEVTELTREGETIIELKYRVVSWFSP
With “S007 (binding domain of human SIRPa, Gene 007, on human kappa light chain, co-expressed with an empty IgG1 heavy chain) (from UniProt P01834 1-107; P01857 1-330)”, the EC50 is over 100 nM.

In the case of “S012 (binding domain of human SIRPa, Gene 012, on human kappa light chain, co-expressed with an empty IgG1 heavy chain) (from UniProt P01834 1-107; P01857 1-330)”, the EC50 is over 100 nM.

As for “CV1, high affinity SIRPa mutant (positive control)”, the EC50 is under 0.1 nM.

For the origin of these results see patent US20210332135A1.
